Reference: publication PMC8446450, “Autosomal Recessive Cutis Laxa 1C Mutations Disrupt the Structure and Interactions of Latent TGFβ Binding Protein-4” (Frontiers in Genetics, 2021)
Where two headings read alike, the source gives them in different places.

T1: Fibulin-4, full length (UniProt O95967 24-443, biotin (biotinylated ligand on streptavidin biosensors, position not stated))
T1 construct: full-length fibulin-4; source: expressed and purified as previously described (Choudhury et al., 2009)
T1 sequence (looked up): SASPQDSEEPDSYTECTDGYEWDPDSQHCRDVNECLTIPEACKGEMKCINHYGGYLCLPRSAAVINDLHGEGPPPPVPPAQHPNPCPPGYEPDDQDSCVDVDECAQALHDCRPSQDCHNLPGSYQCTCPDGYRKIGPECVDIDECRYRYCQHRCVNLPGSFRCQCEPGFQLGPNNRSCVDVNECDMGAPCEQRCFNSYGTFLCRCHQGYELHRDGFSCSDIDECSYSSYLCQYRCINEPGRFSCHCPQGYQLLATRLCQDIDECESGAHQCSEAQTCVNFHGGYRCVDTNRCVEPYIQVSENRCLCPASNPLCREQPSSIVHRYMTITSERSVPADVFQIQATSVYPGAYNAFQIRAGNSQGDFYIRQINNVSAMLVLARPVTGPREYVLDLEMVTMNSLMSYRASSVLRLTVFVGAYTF

T2: Tropoelastin (SHELdelta26A) (biotin where immobilised on streptavidin biosensors (position not given))
T2 chain: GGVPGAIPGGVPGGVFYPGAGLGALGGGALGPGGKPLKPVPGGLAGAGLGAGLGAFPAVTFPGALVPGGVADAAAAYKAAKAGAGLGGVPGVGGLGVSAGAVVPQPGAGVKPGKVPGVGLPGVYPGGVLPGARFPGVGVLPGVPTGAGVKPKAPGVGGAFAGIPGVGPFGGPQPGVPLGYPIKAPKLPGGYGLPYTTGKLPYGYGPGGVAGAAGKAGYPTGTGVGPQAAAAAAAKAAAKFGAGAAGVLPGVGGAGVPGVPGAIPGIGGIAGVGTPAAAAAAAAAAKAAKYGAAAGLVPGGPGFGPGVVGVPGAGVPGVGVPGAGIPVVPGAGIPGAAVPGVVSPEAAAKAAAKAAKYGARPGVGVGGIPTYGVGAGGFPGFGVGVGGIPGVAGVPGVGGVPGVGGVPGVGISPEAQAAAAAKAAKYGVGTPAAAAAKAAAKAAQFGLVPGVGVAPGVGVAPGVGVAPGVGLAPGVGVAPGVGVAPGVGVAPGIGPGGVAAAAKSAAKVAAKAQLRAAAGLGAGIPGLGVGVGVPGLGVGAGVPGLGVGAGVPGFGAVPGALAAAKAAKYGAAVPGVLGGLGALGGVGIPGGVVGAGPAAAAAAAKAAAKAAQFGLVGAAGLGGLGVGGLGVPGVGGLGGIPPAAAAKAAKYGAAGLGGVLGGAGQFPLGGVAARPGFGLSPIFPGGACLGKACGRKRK


What was measured:
[1] = biological target: Latent TGFβ binding protein-4 (LTBP4S) C-terminal region, ARCL1C mutant C1286S (human); assay: SPR; ProteOn, LTBP4 C-terminal constructs amine-coupled on GLC chip, fibrillin-1 PF3 injected 100-3.1 nM, 10 mM HEPES, 150 mM NaCl, pH 7.4, 0.005% Tween-20, 25°C; steady state (equilibrium) analysis
[2] = biological target: T1, Fibulin-4, full length; assay: BLI; OctetRED96, immobilised full-length fibulin-4, NWT or C274G 1000-62.5 nM, 10 mM HEPES, 150 mM NaCl, pH 7.4, 0.005% Tween-20, 25°C; steady state analysis
[3] = biological target: Tropoelastin (SHELdelta26A); assay: BLI; OctetRED96, biotinylated tropoelastin on streptavidin biosensors, LTBP4 C-terminal constructs 375-23.4 nM, 10 mM HEPES, 150 mM NaCl, pH 7.4, 0.005% Tween-20, 25°C; steady state analysis
[4] = biological target: T2, Tropoelastin (SHELdelta26A); assay: BLI
[5] = biological target: T3, Fibrillin-1 PF3 fragment (UniProt P35555 45-722); assay: SPR; ProteOn, LTBP4 C-terminal constructs amine-coupled on GLC chip, fibrillin-1 PF3 injected 100-3.1 nM, 10 mM HEPES, 150 mM NaCl, pH 7.4, 0.005% Tween-20, 25°C; steady state (equilibrium) analysis; conditions: both partners purified
T3 construct: signal peptide in the construct; fibrillin-1 PF3 fragment, residues 1-722 (Rock et al., 2004); also called N-terminal region of fibrillin-1; source: purified
T3 sequence (P35555 45-722): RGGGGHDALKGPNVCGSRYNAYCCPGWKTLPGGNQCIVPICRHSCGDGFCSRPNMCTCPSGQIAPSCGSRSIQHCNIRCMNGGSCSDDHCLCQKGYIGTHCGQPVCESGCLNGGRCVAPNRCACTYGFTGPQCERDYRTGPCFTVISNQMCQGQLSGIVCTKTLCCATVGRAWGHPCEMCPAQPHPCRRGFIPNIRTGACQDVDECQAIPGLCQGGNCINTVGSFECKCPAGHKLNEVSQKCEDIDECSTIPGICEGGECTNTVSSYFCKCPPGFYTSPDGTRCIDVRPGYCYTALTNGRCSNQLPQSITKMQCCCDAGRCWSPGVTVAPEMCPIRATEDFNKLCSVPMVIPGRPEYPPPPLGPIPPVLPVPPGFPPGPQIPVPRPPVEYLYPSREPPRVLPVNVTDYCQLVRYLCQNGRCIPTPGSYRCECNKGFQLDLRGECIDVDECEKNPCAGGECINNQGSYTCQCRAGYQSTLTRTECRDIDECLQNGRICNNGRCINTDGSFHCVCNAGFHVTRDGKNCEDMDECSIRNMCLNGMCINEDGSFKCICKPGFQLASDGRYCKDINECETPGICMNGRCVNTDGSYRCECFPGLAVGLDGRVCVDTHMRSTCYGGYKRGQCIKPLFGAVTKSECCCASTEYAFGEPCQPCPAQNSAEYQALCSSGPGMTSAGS

Kd [3] | Kd [4] | Molecule | other results
– | – | Fibrillin-1 PF3 fragment (from UniProt P35555 45-722) (domain or fragment) | Kd [1]: 12.2 nM
– | – | Latent TGFβ binding protein-4 (LTBP4S) N-terminal region, ARCL1C mutant C274G (domain or fragment) | Kd [2]: 177 nM
57 nM | 6.4 nM | Latent TGFβ binding protein-4 (LTBP4S) C-terminal region, wild type (domain or fragment, human, UniProt Q8N2S1-2 1114-1557, looked up, numbers count on: LTBP4S; N-glycosylated (PNGase-F shift); also called CWT; C WT) RECYFDTAAPDACDNILARNVTWQECCCTVGEGWGSGCRIQQCPGTETAEYQSLCPHGRGYLAPSGDLSLRRDVDECQLFRDQVCKSGVCVNTAPGYSCYCSNGYYYHTQRLECIDNDECADEEPACEGGRCVNTVGSYHCTCEPPLVLDGSQRRCVSNESQSLDDNLGVCWQEVGADLVCSHPRLDRQATYTECCCLYGEAWGMDCALCPAQDSDDFEALCNVLRPPAYSPPRPGGFGLPYEYGPDLGPPYQGLPYGPELYPPPALPYDPYPPPPGPFARREAPYGAPRFDMPDFEDDGGPYGESEAPAPPGPGTRWPYRSRDTRRSFPEPEEPPEGGSYAGSLAEPYEELEAEECGILDGCTNGRCVRVPEGFTCRCFDGYRLDMTRMACVDINECDEAEAASPLCVNARCLNTDGSFRCICRPGFAPTHQPHHCAPARPRA | Kd [5]: 15.8 nM
151 nM | 65 nM | Latent TGFβ binding protein-4 (LTBP4S) C-terminal region, ARCL1C mutant C1286S (domain or fragment) RECYFDTAAPDACDNILARNVTWQECCCTVGEGWGSGCRIQQCPGTETAEYQSLCPHGRGYLAPSGDLSLRRDVDECQLFRDQVCKSGVCVNTAPGYSCYCSNGYYYHTQRLECIDNDECADEEPACEGGRCVNTVGSYHCTSEPPLVLDGSQRRCVSNESQSLDDNLGVCWQEVGADLVCSHPRLDRQATYTECCCLYGEAWGMDCALCPAQDSDDFEALCNVLRPPAYSPPRPGGFGLPYEYGPDLGPPYQGLPYGPELYPPPALPYDPYPPPPGPFARREAPYGAPRFDMPDFEDDGGPYGESEAPAPPGPGTRWPYRSRDTRRSFPEPEEPPEGGSYAGSLAEPYEELEAEECGILDGCTNGRCVRVPEGFTCRCFDGYRLDMTRMACVDINECDEAEAASPLCVNARCLNTDGSFRCICRPGFAPTHQPHHCAPARPRA | –
– | – | Latent TGFβ binding protein-4 (LTBP4S) N-terminal region, wild type (domain or fragment, human, UniProt Q8N2S1-2 29-394, looked up, numbers count on: LTBP4S; N-glycosylated (PNGase-F shift); Biotinylated when immobilised on streptavidin biosensors in the fibronectin BLI experiment (general BLI methods); also called NWT; LTBP4 N-terminal region) GERLRVRFTPVVCGLRCVHGPTGSRCTPTCAPRNATSVDSGAPGGAAPGGPGFRAFLCPLICHNGGVCVKPDRCLCPPDFAGKFCQLHSSGARPPAPAVPGLTRSVYTMPLANHRDDEHGVASMVSVHVEHPQEASVVVHQVERVSGPWEEADAEAVARAEAAARAEAAAPYTVLAQSAPREDGYSDASGFGYCFRELRGGECASPLPGLRTQEVCCRGAGLAWGVHDCQLCSERLGNSERVSAPDGPCPTGFERVNGSCEDVDECATGGRCQHGECANTRGGYTCVCPDGFLLDSSRSSCISQHVISEAKGPCFRVLRDGGCSLPILRNITKQICCCSRVGKAWGRGCQLCPPFGSEGFREICPA | Kd ([2]; both partners purified): 1290 nM
